Results reported in PMC6173638 (Cell, 2018).
One block for each molecule: values may come before it.

Experiments:
[1] = molecular target: Bosea sp. Root381 GapR(L48M-I54M-L73M), selenomethionine substituted (Bosea sp. Root381); experiment: crystal structure
[2] = molecular target: Bosea sp. Root381 GapR, wild type (Bosea sp. Root381); experiment: crystal structure
SEC-MALS = molecular target: the molecule itself; experiment: SEC-MALS
crystal structure = molecular target: the molecule itself; experiment: crystal structure
GapR(11-89) WT = molecular target: T1, GapR(11-89) WT (Caulobacter crescentus, UniProt B8H4R9 11-89); experiment: X-ray crystallography
T1 sequence: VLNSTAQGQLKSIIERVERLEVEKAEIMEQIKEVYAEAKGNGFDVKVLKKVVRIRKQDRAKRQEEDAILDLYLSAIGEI

GapR(11-89) L83M SeMet = molecular target: T2, GapR(11-89) L83M SeMet (Caulobacter crescentus, UniProt B8H4R9 11-89, L83M); experiment: X-ray crystallography
T2 sequence: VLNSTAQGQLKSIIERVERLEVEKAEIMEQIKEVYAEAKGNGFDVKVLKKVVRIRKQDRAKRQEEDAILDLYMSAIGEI

stoichiometry N [1]: 2
Molecule: Bosea sp. Root381 GapR(L48M-I54M-L73M), selenomethionine substituted (natural protein)

stoichiometry N [2]: 4
Molecule: Bosea sp. Root381 GapR, wild type (natural protein)

B1: Caulobacter crescentus GapR, untagged (natural protein, UniProt B8H4R9 1-89, looked up)
chain: MADDAIPHTDVLNSTAQGQLKSIIERVERLEVEKAEIMEQIKEVYAEAKGNGFDVKVLKKVVRIRKQDRAKRQEEDAILDLYLSAIGEI
stoichiometry N (SEC-MALS): 2

B2: C. crescentus GapR(11-89) L83M, selenomethionine substituted (domain or fragment, Caulobacter crescentus, UniProt B8H4R9 11-89, looked up)
chain: VLNSTAQGQLKSIIERVERLEVEKAEIMEQIKEVYAEAKGNGFDVKVLKKVVRIRKQDRAKRQEEDAILDLYMSAIGEI
modifications: selenomethionine substituted
stoichiometry N (crystal structure): 4

B3: AT-rich crystallization 11-mer (dsDNA)
DNA 1: TTAAAATTAAA
DNA 2: TTTAATTTTAA
binding result (GapR(11-89) WT): binds
binding result (GapR(11-89) L83M SeMet): binds
